Data from article PMC10877986 (mAbs, 2024).
Where two headings read alike, the source gives them in different places.

Assays:
Assay in all cases: SPR
recombinant human PD-1 [1] = molecular target: T1, recombinant human PD-1 (Homo sapiens, UniProt Q15116)
[2] = molecular target: recombinant cynomolgus monkey PD-1 (Macaca fascicularis (cynomolgus monkey), UniProt B0LAJ3)
recombinant human PD-1 [3] = molecular target: T1, recombinant human PD-1; remark: listed apart in the source
recombinant mouse PD-1 = recombinant mouse PD-1 (Mus musculus, UniProt Q02242)
Chain of recombinant mouse PD-1 (Q02242 25-169): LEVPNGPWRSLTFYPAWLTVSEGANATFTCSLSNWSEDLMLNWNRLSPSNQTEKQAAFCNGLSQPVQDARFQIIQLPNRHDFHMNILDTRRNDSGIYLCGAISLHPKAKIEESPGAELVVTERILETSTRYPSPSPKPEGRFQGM

T1 sequence (Q15116 25-170): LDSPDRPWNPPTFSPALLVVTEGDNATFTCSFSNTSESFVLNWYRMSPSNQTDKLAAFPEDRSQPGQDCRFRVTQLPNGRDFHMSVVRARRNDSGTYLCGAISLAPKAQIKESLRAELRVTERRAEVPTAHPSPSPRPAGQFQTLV

B1: h1340.CC (antibody, V domains shown)
VH: EQQLVESGGGVVQPGRSLRLSCAASGFSFSSTYWICWVRQAPGKGLEWIACIYAGSSGNTYYANWAKGRFTISKDSSSTTVFLQMNSLRAEDTAVYFCARAGGAGGGVYTLTRLDLWGQGTLVTVSS
VL: AAQLTQSPSSLSASVGDRVTITCQSSQSVYNNNDLAWYQQKPGKPPKLLIYTPSSLTSGVPSRFSGSGSGTDFTLTISSLQPEDFATYYCLGGYDDDSDNAFGGGTKVEIK
**Q.** For B1, which Kd (recombinant human PD-1 [1]) is on record?
**A.** 0.1 nM

**Q.** What about the Kd [2] of the same binder?
**A.** 0.42 nM

**Q.** What about the Kd (recombinant human PD-1 [3]) of the same binder?
**A.** 0.3 nM

**Q.** And the Kd (recombinant mouse PD-1)?
**A.** 1.72 nM

B2: h1340.SA (antibody, V domains shown)
VH: EQQLVESGGGVVQPGRSLRLSCAASGFSFSSTYWISWVRQAPGKGLEWIAAIYAGSSGNTYYANWAKGRFTISKDSSSTTVFLQMNSLRAEDTAVYFCARAGGAGGGVYTLTRLDLWGQGTLVTVSS
VL: AAQLTQSPSSLSASVGDRVTITCQSSQSVYNNNDLAWYQQKPGKPPKLLIYTPSSLTSGVPSRFSGSGSGTDFTLTISSLQPEDFATYYCLGGYDDDSDNAFGGGTKVEIK
**Q.** How did the Kd (recombinant human PD-1 [1]) turn out when B2 was run?
**A.** 0.7 nM

**Q.** And the “fold decrease in affinity against rbt1340” value [2]?
**A.** 6 fold

**Q.** And the “fold decrease in affinity against h1340.CC” value (recombinant human PD-1 [3])?
**A.** ~2.5 fold

**Q.** What about the “fold decrease in affinity against rbt1340” value (recombinant human PD-1 [3]) of the same binder?
**A.** 4 fold

**Q.** And the “fold decrease in affinity against h1340.CC” value (recombinant mouse PD-1)?
**A.** ~4 fold

B3: h1340.AA (antibody, V domains shown)
VH: EQQLVESGGGVVQPGRSLRLSCAASGFSFSSTYWIAWVRQAPGKGLEWIAAIYAGSSGNTYYANWAKGRFTISKDSSSTTVFLQMNSLRAEDTAVYFCARAGGAGGGVYTLTRLDLWGQGTLVTVSS
VL: AAQLTQSPSSLSASVGDRVTITCQSSQSVYNNNDLAWYQQKPGKPPKLLIYTPSSLTSGVPSRFSGSGSGTDFTLTISSLQPEDFATYYCLGGYDDDSDNAFGGGTKVEIK
**Q.** Does B3 bind (recombinant human PD-1 [1])?
**A.** binds

B4: h1340.SA.6 (antibody, V domains shown)
VH: EQQLVESGGGVVQPGRSLRLSCAASGFSFSSTYWISWVRQAPGKGLEWIAAIYAGSSGNTYYANWAKGRFTISKDSSSTTVFLQMNSLRAEDTAVYFCARSGGAGGGVYTLTRLDLWGQGTLVTVSS
VL: AAQLTQSPSSLSASVGDRVTITCQSSQSVYNNNDLAWYQQKPGKPPKLLIYTPSSLTSGVPSRFSGSGSGTDFTLTISSLQPEDFATYYCLGGYDDDSDNAFGGGTKVEIK
**Q.** Does B4 bind (recombinant human PD-1 [1])?
**A.** binds

B5: h1340.SA.3 (antibody, V domains shown)
VH: EQQLVESGGGVVQPGRSLRLSCAASGFSFDSTYWISWVRQAPGKGLEWIAAIYAGSSGNTYYANWAKGRFTISKDSSSTTVFLQMNSLRAEDTAVYFCARAGGAGGGVYTLTRLDLWGQGTLVTVSS
VL: AAQLTQSPSSLSASVGDRVTITCQSSQSVYNNNDLAWYQQKPGKPPKLLIYTPSSLTSGVPSRFSGSGSGTDFTLTISSLQPEDFATYYCLGGYDDDSDNAFGGGTKVEIK
**Q.** Does B5 bind (recombinant human PD-1 [1])?
**A.** binds

B6: h1340.SA.5 (antibody, V domains shown)
VH: EQQLVESGGGVVQPGRSLRLSCAASGFSFSSTYWISWVRQAPGKGLEWIAAIYLGSSGNTYYANWAKGRFTISKDSSSTTVFLQMNSLRAEDTAVYFCARAGGAGGGVYTLTRLDLWGQGTLVTVSS
VL: AAQLTQSPSSLSASVGDRVTITCQSSQSVYNNNDLAWYQQKPGKPPKLLIYTPSSLTSGVPSRFSGSGSGTDFTLTISSLQPEDFATYYCLGGYDDDSDNAFGGGTKVEIK
**Q.** Does B6 bind (recombinant human PD-1 [1])?
**A.** binds
